Measurements as given in patent US11471509B2, “Compositions and methods relating to myomaker-induced muscle cell fusion” (The Board of Regents of the University of Texas System, priority 2013, dated 2022).

Assays:
C2C12 myoblasts = assay: Retroviral over-expression in C2C12 cells, myoblast fusion; format: cell-based; conditions: 4 days of differentiation
[1] = tested on: 10T1/2 fibroblasts mixed with C2C12 cells; assay: Cell mixing: infected 10T1/2 fibroblasts with C2C12 myoblasts; format: cell-based
Protocol: WT myoblasts were mixed with either Myomaker+/− or Myomaker−/− myoblasts at equal ratios (approximately 1×10^5 cells per genotype), plated on a well of a laminin coated 12-well plate, and induced to differentiate the next day. 10T1/2 fibroblasts were infected with either GFP- and empty-retrovirus or GFP- and Myomaker-retrovirus for 18 h. After infection, cells were washed multiple times and then trypsinized, and mixed with C2C12 myoblasts at a 1:1 ratio (1×10^5 of each cell type) and plated on one well of a 6 well plate in differentiation media. GFP and myosin expression was analyzed 4 days after differentiation. […]
Each histological analysis of embryonic skeletal muscle was performed on four samples per genotype. The differentiation index was calculated as the percentage of nuclei in myosin-positive cells. The fusion index was calculated as the percentage of nuclei contained in myosin-positive myotubes. […] To quantitate fusion between WT myoblasts and either Myomaker+/− or Myomaker−/− myoblasts, the inventors calculated the percentage of LacZ+ myotubes containing ≥3 nuclei. To quantitate fusion between fibroblasts and myoblasts, the inventors calculated the percentage of GFP+ myosin+ cells or the percentage of BrdU+ myotube nuclei. For each quantitation, at least 3 independent experiments were performed in duplicate and at least 6 random fields were imaged per sample. […]

B1: Tmem8b: closest relative of Myomaker/Tmem8c, not muscle-specific (protein, UniProt B1AWJ5 1-472, looked up)
Transmembrane protein 8B: MNMPQSLGTQPLPPEPPSLGTPIEGSGAIAPTEHCWPVRPTLRNELDTFSVHFYIFFGPSVALPPERPAVFALRLLPVLDSGGVLSLELQLNASSLRQENVTVFGCLTHEVPLSLGDAAVTCSKESLAGFLLSVSATSRVARLRIPFPQTGTWFLTLRSLCGVGPRFVRCRNATAEVRLRTFLSPCVDDCGPYGQCKLLRTHNYLYAACECKAGWRGWGCTDSADALTYGFQLLSTLLLCLSNLMFLPPVVLAIRSRYVLEAAVYTFTMFFSTFYHACDQPGIVVFCIMDYDVLQFCDFLGSLMSVWVTVIAMARLQPVIKQVLYLLGAMLLSMALQLDRHGLWNLLGPSLFALGILATAWTVRSVRRRHCYPPTWRRWLFYLCPGSLIAGSAVLLYAFVETRDNYFYIHSIWHMLIAGSVGFLLPPRAKTDRRVPSGARARGCGYQLCINEQEELGLVGPGGTTVSSICVS
- myoblast fusion after forced expression (C2C12 myoblasts): did not promote fusion

B2: Myomaker: muscle-specific membrane protein of 221 residues, expressed from pBabe-X retrovirus (protein, UniProt Q9D1N4 1-221, looked up)
Protein myomaker: MGTVVAKLLLPTLSSLAFLPTVSIATKRRFYMEAMVYLFTMFFVAFSHACDGPGLSVLCFMRRDILEYFSIYGTALSMWVSLMALADFDEPQRSTFTMLGVLTIAVRTFHDRWGYGVYSGPIGTATLIIAVKWLKKMKEKKGLYPDKSIYTQQIGPGLCFGALALMLRFFFEEWDYTYVHSFYHCALAMSFVLLLPKVNKKAGNAGAPAKLTFSTLCCTCV
- fusion of infected fibroblasts with C2C12 cells ([1]; 10T1/2 fibroblasts infected with GFP and Myomaker virus, mixed 1:1 with C2C12, 4 days differentiation): robustly fused with C2C12 cells
- fusion of fibroblasts in the absence of myoblasts ([1]; fibroblasts expressing Myomaker, no myoblasts): not sufficient to induce fusion of fibroblasts
- myoblast fusion after forced expression (C2C12 myoblasts): dramatic increase in fusion
